Publication PMC10836398, “Structural flexibility of Toscana virus nucleoprotein in the presence of a single-chain camelid antibody” (Acta Crystallographica. Section D, Structural Biology, 2024)

Biological target: T1, Toscana virus nucleoprotein (Toscana virus, UniProt P21701)
T1 construct: Nucleoprotein (N) of Toscana virus, coded by the S segment; Monomeric fractions of N were pooled for complex formation; also called TOSV N; N protein; source: E. coli, purified under non-denaturing conditions (1 M NaCl and 3 M urea in the lysis buffer to remove nucleic acids)
T1 sequence (P21701 2-253): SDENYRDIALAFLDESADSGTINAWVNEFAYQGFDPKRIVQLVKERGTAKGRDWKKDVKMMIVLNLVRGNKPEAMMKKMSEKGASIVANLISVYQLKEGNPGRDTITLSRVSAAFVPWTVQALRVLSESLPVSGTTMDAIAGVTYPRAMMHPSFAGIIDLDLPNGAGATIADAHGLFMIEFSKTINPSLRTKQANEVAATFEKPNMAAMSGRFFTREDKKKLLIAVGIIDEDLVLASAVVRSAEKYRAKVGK
Assay: crystal structure; N–VHH complex at 13 mg/ml, hanging drop, 293 K, 0.5 M MES pH 6.5, 25% PEG 2000; space group P4(1)2(1)2, 3.8 Å
Settings: both partners purified

B1: single-chain camelid antibody (VHH) targeting the TOSV N protein (VHH)
VHH: QVQLVESGGGSVQAGGSLRLSCAASGDAGRRYCMAWFRQAPGKEREGVAFISTANGRTDYVDSVKGRFTISQNSAKNTVYLQMNSLKPEDTAMYYCASRGYGYLSCSSYSLAAYNYWGQGTQVTVSS
notes: Selected by phage display from a llama immunised with TOSV N; The clone has no printed name; also called nanobody; source: E. coli WK6, periplasmic extract, purified (IMAC)
**Q.** Does B1 bind?
**A.** Result: binds
